Measurements: patent publication US20120135923A1 (IPSEN PHARMA S A S, published 2012)
Several values for one entry are separate records, joined by “and”; a condition that tells them apart may be missing. Equal entries are not always repeated. Bridge positions count the residues as written; N and C are the ends. Square brackets hold non-standard residues; d marks the D form. Ends that are not written are not given here. 1Nal = N[C@@H](Cc1cccc2ccccc12)C(=O)O; 2Nal = N[C@@H](Cc1ccc2ccccc2c1)C(=O)O; d2Nal = N[C@H](Cc1ccc2ccccc2c1)C(=O)O; Bta = N[C@@H](Cc1csc2ccccc12)C(=O)O; hCha = N[C@@H](CCC1CCCCC1)C(=O)O; dChg = N[C@@H](C(=O)O)C1CCCCC1; dTle = CC(C)(C)[C@@H](N)C(=O)O; Nle = CCCC[C@H](N)C(=O)O; Ac5c = NC1(C(=O)O)CCCC1; Apc = not defined here; Ava = NCCCCC(=O)O; GABA = NCCCC(=O)O; βAla = NCCC(=O)O

B1: Ac-Nle-c(Cys-D-Ala-His-D-Phe-Arg-Trp-Apn-Cys)-NH2 (peptide)
peptide: Ac-[Nle]C[dA]H[dF]RW[Ava]C-NH2
modifications: disulfide 2-9
SMILES: CCCC[C@H](NC(C)=O)C(=O)N[C@H]1CSSC[C@@H](C(N)=O)NC(=O)CCCCNC(=O)[C@H](Cc2c[nH]c3ccccc23)NC(=O)[C@H](CCCNC(=N)N)NC(=O)[C@@H](Cc2ccccc2)NC(=O)[C@H](Cc2c[nH]cn2)NC(=O)[C@@H](C)NC1=O
B2: Ac-Nle-c(Cys-D-Ala-His-D-Phe-Arg-Trp-Gaba-Cys)-NH2 (peptide)
peptide: Ac-[Nle]C[dA]H[dF]RW[GABA]C-NH2
modifications: disulfide 2-9
B3: Ac-Nle-c(Asp-His-D-Phe-Arg-Trp-β-Ala-Lys)-NH2 (peptide)
peptide: Ac-[Nle]DH[dF]RW[βAla]K-NH2
modifications: lactam 2-8
SMILES: CCCC[C@H](NC(C)=O)C(=O)N[C@H]1CC(=O)NCCCC[C@@H](C(N)=O)NC(=O)CCNC(=O)[C@H](Cc2c[nH]c3ccccc23)NC(=O)[C@H](CCCNC(=N)N)NC(=O)[C@@H](Cc2ccccc2)NC(=O)[C@H](Cc2c[nH]cn2)NC1=O
B4: Ac-hCha-c(Asp-His-D-Phe-Arg-Trp-Gaba-Lys)-NH2 (peptide)
peptide: Ac-[hCha]DH[dF]RW[GABA]K-NH2
modifications: lactam 2-8
SMILES: CC(=O)N[C@@H](CCC1CCCCC1)C(=O)N[C@H]1CC(=O)NCCCC[C@@H](C(N)=O)NC(=O)CCCNC(=O)[C@H](Cc2c[nH]c3ccccc23)NC(=O)[C@H](CCCNC(=N)N)NC(=O)[C@@H](Cc2ccccc2)NC(=O)[C@H](Cc2c[nH]cn2)NC1=O
B5: Ac-D-Chg-c(Asp-His-D-Phe-Arg-Trp-Gaba-Lys)-NH2 (peptide)
peptide: Ac-[dChg]DH[dF]RW[GABA]K-NH2
modifications: lactam 2-8
B6: Ac-Nle-c(Cys-D-Tle-His-D-Phe-Arg-Trp-Cys)-NH2 (peptide)
peptide: Ac-[Nle]C[dTle]H[dF]RWC-NH2
modifications: disulfide 2-8
B7: Ac-Nle-c(Cys-D-Ala-His-D-Phe-Arg-Trp-β-Ala-Cys)-NH2 (peptide)
peptide: Ac-[Nle]C[dA]H[dF]RW[βAla]C-NH2
modifications: disulfide 2-9
B8: Ac-Arg-c(Asp-His-D-Phe-Arg-Trp-Ala-Lys)-NH2 (peptide)
peptide: Ac-RDH[dF]RWAK-NH2
modifications: lactam 2-8
B9: Ac-c(Cys-Glu-His-D-2-Nal-Arg-1-Nal-Ala-Cys)-Pro-Pro-Lys-Asp-β-[…]NH2 (peptide)
peptide: Ac-CEH[d2Nal]R[1Nal]ACPPKD[βAla]RKRRRQRRR-NH2
modifications: disulfide 1-8
B10: c[Hydantoin(C(O)-(Asp-Apc))-D-2-Nal-Arg-Trp-Lys]-NH2 (peptide)
peptide: D[Apc][d2Nal]RWK-NH2
modifications: lactam 1-6; reading uncertain; also: hydantoin ring: N-terminal N of Asp1 and backbone N of residue 2 bridged by one C(O), bridge at N via C(O), other end not in the chain, printed as c[Hydantoin(C(O)-(Asp-Apc))-D-2-Nal-Arg-Trp-Lys]-NH2
B11: Ac-c(Cys-Glu-His-D-2-Nal-Arg-2-Nal-Ala-Cys)-Pro-Pro-Lys-Asp-β-[…]NH2 (peptide)
peptide: Ac-CEH[d2Nal]R[2Nal]ACPPKD[βAla]RRRRRRQRRR-NH2
modifications: disulfide 1-8
B12: Ac-c(Cys-Glu-His-D-2-Nal-Arg-2-Nal-Ala-Cys)-Pro-Pro-Lys-Asp-β-Ala-Tyr-Gly-Arg-Lys-Lys-Arg-Arg-Gln-Arg-Arg-Arg-NH2 (peptide)
peptide: CEHXRXACPPKDXYGRKKRRQRRR
modifications: N-terminal Ac; D-2-Nal at 4; 2-Nal at 6; β-Ala at 13; disulfide Cys1-Cys8; C-terminal NH2
B13: Ac-c(Cys-Glu-His-D-2-Nal-Arg-1-Nal-Ala-Cys)-Pro-Pro-Lys-Asp-β-[…]NH2 (peptide)
peptide: Ac-CEH[d2Nal]R[1Nal]ACPPKD[βAla]YGRRKRRQRRR-NH2
modifications: disulfide 1-8
SMILES: CC(=O)N[C@H]1CSSC[C@@H](C(=O)N2CCC[C@H]2C(=O)N2CCC[C@H]2C(=O)N[C@@H](CCCCN)C(=O)N[C@@H](CC(=O)O)C(=O)NCCC(=O)N[C@@H](Cc2ccc(O)cc2)C(=O)NCC(=O)N[C@@H](CCCNC(=N)N)C(=O)N[C@@H](CCCNC(=N)N)C(=O)N[C@@H](CCCCN)C(=O)N[C@@H](CCCNC(=N)N)C(=O)N[C@@H](CCCNC(=N)N)C(=O)N[C@@H](CCC(N)=O)C(=O)N[C@@H](CCCNC(=N)N)C(=O)N[C@@H](CCCNC(=N)N)C(=O)N[C@@H](CCCNC(=N)N)C(N)=O)NC(=O)[C@H](C)NC(=O)[C@H](Cc2cccc3ccccc23)NC(=O)[C@H](CCCNC(=N)N)NC(=O)[C@@H](Cc2ccc3ccccc3c2)NC(=O)[C@H](Cc2c[nH]cn2)NC(=O)[C@H](CCC(=O)O)NC1=O
B14: Ac-c(Cys-Glu-His-D-2-Nal-Arg-2-Nal-Ala-Cys)-Pro-Pro-Lys-Asp-β-[…]NH2 (peptide)
peptide: Ac-CEH[d2Nal]R[2Nal]ACPPKD[βAla]YGRRKRRQRRR-NH2
modifications: disulfide 1-8
B15: Ac-c(Cys-Glu-His-D-2-Nal-Arg-1-Nal-Ala-Cys)-Pro-Pro-Lys-Asp-β-[…]NH2 (peptide)
peptide: Ac-CEH[d2Nal]R[1Nal]ACPPKD[βAla]YGRKRRRQRRR-NH2
modifications: disulfide 1-8
B16: Ac-c(Cys-Glu-His-D-2-Nal-Arg-Bal-Ala-Cys)-Pro-Pro-Lys-Asp-β-[…]NH2 (peptide)
peptide: Ac-CEH[d2Nal]R[Bta]ACPPKD[βAla]YGRKRRRQRRR-NH2
modifications: disulfide 1-8
B17: Ac-c(Cys-Glu-His-D-2-Nal-Arg-Trp-Ala-Cys)-Pro-Pro-Lys-Asp-NH2 (peptide)
peptide: Ac-CEH[d2Nal]RWACPPKD-NH2
modifications: disulfide 1-8
SMILES: CC(=O)N[C@H]1CSSC[C@@H](C(=O)N2CCC[C@H]2C(=O)N2CCC[C@H]2C(=O)N[C@@H](CCCCN)C(=O)N[C@@H](CC(=O)O)C(N)=O)NC(=O)[C@H](C)NC(=O)[C@H](Cc2c[nH]c3ccccc23)NC(=O)[C@H](CCCNC(=N)N)NC(=O)[C@@H](Cc2ccc3ccccc3c2)NC(=O)[C@H](Cc2c[nH]cn2)NC(=O)[C@H](CCC(=O)O)NC1=O
B18: c[Hydantoin(C(O)-(Asp-A5c))-D-2-Nal-Arg-Trp-Lys]-NH2 (peptide)
peptide: D[Ac5c][d2Nal]RWK-NH2
modifications: lactam 1-6; also: hydantoin ring: N-terminal N of Asp1 and backbone N of residue 2 bridged by one C(O), bridge at N via C(O), other end not in the chain
B19: Ac-Nle-c(Cys-D-Ala-His-D-Phe-Arg-Trp-Cys)-Doc-Tyr-Gly-Arg-Lys-Lys-Arg-Arg-Gln-Arg-Arg-Arg-NH2 (peptide)
peptide: XCAHFRWCXYGRKKRRQRRR
modifications: N-terminal Ac; Nle at 1; D-Ala at 3; D-Phe at 5; Doc at 9; disulfide Cys2-Cys8; C-terminal NH2

What follows are binders tested against T1, hMC3-R (human, UniProt P41968 1-323) (assay: competition with [125I]-NDP-α-MSH, CHO-K1 membranes).
T1 construct: whole, on cells; Assayed as membranes of CHO-K1 cells expressing the receptor; also called hMC-R receptor subtype 3; melacortin-3 (MC3-R)
Procedure: (§1) Cellular membranes used for the in vitro receptor binding assays were obtained from transgenic CHO-K1 cells stably expressing hMC-R receptor subtypes 1, 3, 4 or 5. […] The pellets were resuspended in the same buffer and centrifuged at 50,000 g for 10 minutes at approximately 4° C. The washed pellets containing the cellular membranes were stored at approximately −80° C.
(§2) Competitive inhibition of [¹²⁵I](Tyr²)-(Nle⁴-D-Phe⁷)α-MSH ([¹²⁵I]-NDP-α-MSH, Amersham Biosciences®) binding was carried out in polypropylene 96 well plates. Cell membranes (1-10 μg protein/well) prepared as described above were incubated in 50 mM Tris-HCl at pH 7.4 containing 0.2% bovine serum albumin (BSA), 5 mM MgCl₂, 1 mM CaCl₂ and 0.1 mg/mL bacitracin, with increasing concentrations of the test compound and 0.1-0.3 nM […] for approximately 90-120 minutes at approximately 37° C. Bound [¹²⁵I]-NDP-α-MSH ligand was separated from free [¹²⁵I]-NDP-α-MSH by filtration through GF/C glass fiber filter plates (Unifilter®; Packard) presoaked with 0.1% (w/v) polyethylenimine (PEI), using a Packard Filtermate® harvester. Filters were washed three times with 50 mM Tris-HCl at pH 7.4 at a temperature of approximately 0-4° C. and then assayed for radioactivity using a Packard Topcount® scintillation counter. Binding data were analyzed by computer-assisted non-linear regression analysis (XL fit; IDBS).

T1 sequence (P41968 whole entry): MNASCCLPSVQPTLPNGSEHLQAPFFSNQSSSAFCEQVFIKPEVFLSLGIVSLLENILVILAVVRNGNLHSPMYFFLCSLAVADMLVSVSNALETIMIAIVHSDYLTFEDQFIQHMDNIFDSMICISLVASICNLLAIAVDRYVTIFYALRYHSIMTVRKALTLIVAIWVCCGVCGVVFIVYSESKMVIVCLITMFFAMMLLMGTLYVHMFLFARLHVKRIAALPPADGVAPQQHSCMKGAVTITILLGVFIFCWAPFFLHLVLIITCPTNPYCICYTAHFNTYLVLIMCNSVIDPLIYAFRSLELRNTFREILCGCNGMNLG

| Binder | Ki |
| --- | --- |
| B1 | 228 nM |
| B2 | 184 nM and 169 nM |
| B3 | 9320 nM |
| B4 | 93.5 nM |
| B5 | 14.5 nM |
| B6 | 85.8 nM |
| B7 | 287 nM and 227 nM |
| B8 | 20.7 nM |

What follows are binders tested against T2, hMC5-R (human, UniProt P33032 1-325) in the same assay as above.
T2 construct: whole, on cells; Assayed as membranes of CHO-K1 cells expressing the receptor; also called hMC-R receptor subtype 5; melanocortin-5 receptor (MC5-R)
Procedure: as §1, §2

T2 sequence (P33032 whole entry): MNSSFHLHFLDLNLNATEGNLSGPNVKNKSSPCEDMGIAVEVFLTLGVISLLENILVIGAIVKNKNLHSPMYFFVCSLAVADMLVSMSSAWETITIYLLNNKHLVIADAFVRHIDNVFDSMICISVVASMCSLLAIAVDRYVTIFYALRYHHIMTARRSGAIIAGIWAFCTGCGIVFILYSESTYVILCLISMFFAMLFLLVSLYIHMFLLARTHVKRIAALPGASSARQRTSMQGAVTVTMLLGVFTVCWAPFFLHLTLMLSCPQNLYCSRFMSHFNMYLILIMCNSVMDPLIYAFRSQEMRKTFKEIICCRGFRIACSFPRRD

| Binder | Ki |
| --- | --- |
| B1 | 859 nM |
| B2 | 956 nM and 358 nM |
| B3 | 10.9 nM |
| B4 | 747 nM |
| B5 | 164 nM |
| B6 | 40 nM |
| B7 | 766 nM and 496 nM |
| B8 | 783 nM |

Each binder was assayed against T3, hMC4-R (human, UniProt P32245 1-332) in the same assay as above.
T3 construct: whole, on cells; Assayed as membranes of CHO-K1 cells expressing the receptor; also called hMC-R receptor subtype 4; melanocortin-4 (MC4-R)
Procedure: as §1, §2

T3 sequence (P32245 whole entry): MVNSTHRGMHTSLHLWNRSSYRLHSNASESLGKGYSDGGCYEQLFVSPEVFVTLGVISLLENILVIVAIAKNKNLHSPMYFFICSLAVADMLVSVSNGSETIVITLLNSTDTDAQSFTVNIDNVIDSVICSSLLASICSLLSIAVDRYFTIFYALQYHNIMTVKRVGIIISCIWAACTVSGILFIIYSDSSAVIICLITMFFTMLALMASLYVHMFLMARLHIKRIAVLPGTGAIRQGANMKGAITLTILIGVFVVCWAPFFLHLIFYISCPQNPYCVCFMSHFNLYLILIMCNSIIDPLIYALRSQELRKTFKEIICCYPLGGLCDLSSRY

| Binder | Ki |
| --- | --- |
| B1 | 7.58 nM |
| B2 | 3.76 nM and 3.12 nM |
| B3 | 0.617 nM |
| B4 | 56 nM |
| B5 | 2.99 nM |
| B6 | 11.2 nM |
| B7 | 5.55 nM |
| B8 | 1.01 nM |

These binders were tested against T4, hMC1-R (human, UniProt Q01726 1-317) in the same assay as above.
T4 construct: whole, on cells; Assayed as membranes of CHO-K1 cells expressing the receptor; also called hMC-R receptor subtype 1; melanocyte-specific receptor (MC1-R)
Procedure: as §1, §2

T4 sequence (Q01726 whole entry): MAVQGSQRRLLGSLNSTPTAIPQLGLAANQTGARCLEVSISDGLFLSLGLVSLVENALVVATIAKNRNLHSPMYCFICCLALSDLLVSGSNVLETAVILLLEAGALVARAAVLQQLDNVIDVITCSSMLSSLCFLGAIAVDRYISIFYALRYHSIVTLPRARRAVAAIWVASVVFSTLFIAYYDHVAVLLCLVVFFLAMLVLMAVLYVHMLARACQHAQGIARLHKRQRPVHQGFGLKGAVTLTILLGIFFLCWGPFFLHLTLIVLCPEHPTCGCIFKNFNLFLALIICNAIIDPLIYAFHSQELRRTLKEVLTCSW

| Binder | Ki |
| --- | --- |
| B1 | 1.1 nM |
| B2 | 0.848 nM and 0.536 nM |
| B3 | 0.0996 nM |
| B4 | 0.721 nM |
| B5 | 0.227 nM |
| B6 | 12 nM |
| B7 | 0.995 nM and 1 nM |
| B8 | 0.68 nM |

What follows are binders tested against T5, human melanocortin receptor subtype 3 (hMC3-R) (human, UniProt P41968 1-323) (assay: [125I]-NDP-α-MSH competition, membranes).
T5 construct: whole, on cells; membranes of CHO-K1 cells
Procedure: as §1, §2

T5 sequence (P41968 whole entry): as the sequence (P41968 whole entry) above

| Binder | Ki [nM] |
| --- | --- |
| B9 | 3.99 |
| B10 | 2760 |
| B11 | 2.26 |
| B12 | 0.59 |
| B13 | 1.74 |
| B14 | 1.12 |
| B15 | 1.61 |
| B16 | 1.12 |
| B17 | 9 |
| B18 | 2390 |
| B19 | 0.699 |

These binders were tested against T6, human melanocortin receptor subtype 5 (hMC5-R) (human, UniProt P33032 1-325) (assay: [125I]-NDP-α-MSH competition, membranes).
T6 construct: whole, on cells; membranes of CHO-K1 cells
Procedure: as §1, §2

T6 sequence (P33032 whole entry): as the sequence (P33032 whole entry) above

| Binder | Ki [nM] |
| --- | --- |
| B9 | 27.5 |
| B12 | 4.38 |
| B13 | 16.8 |
| B14 | 15.3 |
| B17 | 218 |

What follows are binders tested against T7, human melanocortin receptor subtype 1 (hMC1-R) (human, UniProt Q01726 1-317) (assay: [125I]-NDP-α-MSH competition, membranes).
T7 construct: whole, on cells; membranes of CHO-K1 cells
Procedure: as §1, §2

T7 sequence (Q01726 whole entry): as the sequence (Q01726 whole entry) above

| Binder | Ki [nM] |
| --- | --- |
| B9 | 2.12 |
| B10 | 1280 |
| B11 | 3.65 |
| B12 | 1.74 |
| B13 | 1.75 |
| B15 | 1.5 |
| B16 | 2.14 |
| B17 | 49.9 |
| B18 | 9940 |

The binders below were run against T8, human melanocortin receptor subtype 4 (hMC4-R) (human, UniProt P32245 1-332) (assay: [125I]-NDP-α-MSH competition, membranes).
T8 construct: whole, on cells; membranes of CHO-K1 cells
Procedure: as §1, §2

T8 sequence (P32245 whole entry): as the sequence (P32245 whole entry) above

| Binder | Ki [nM] |
| --- | --- |
| B10 | 266 |
| B11 | 0.261 |
| B12 | 0.17 |
| B13 | 0.15 |
| B14 | 0.223 |
| B15 | 0.301 |
| B16 | 0.624 |
| B17 | 0.569 |
| B18 | 44.6 |
| B19 | 0.596 |
